From the supplement of paper PMC9112550, “Optimization of the antimicrobial peptide Bac7 by deep mutational scanning” (BMC Biology, 2022)

Test system: Escherichia coli TOP10
Test: shrunken log2 fold change of peptide-encoding DNA abundance (4.5 h post-induction vs induction); higher = less antimicrobial activity (less host growth inhibition)
Conditions: time post-induction: 4.5 h; library: site-saturation at positions 5, 18, 19, 20
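Further: peptides expressed intracellularly from a pBAD plasmid library in pooled LB shake-flask culture, induced with 0.3% L-arabinose, DNA abundance read by NGS, three biological replicates, DESeq2 with apeglm shrinkage.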

Sequence	shrunken log2 fold change
RRIRDRPPRLPRPRPRPKTHPRP	0.0785
RRIRDRPPRLPRPRPRPKTMPRP	-0.0184
RRIRDRPPRLPRPRPRPKTNPRP	-0.0796
RRIRDRPPRLPRPRPRPKWFPRP	-0.0316
RRIRDRPPRLPRPRPRPKWLPRP	0.223
RRIRDRPPRLPRPRPRPKYDPRP	0.0612
RRIRDRPPRLPRPRPRPKYIPRP	-0.516
RRIRDRPPRLPRPRPRPLARPRP	0.479
RRIRDRPPRLPRPRPRPLAVPRP	0.887
RRIRDRPPRLPRPRPRPLCQPRP	0.0964
RRIRDRPPRLPRPRPRPLDSPRP	0.148
RRIRDRPPRLPRPRPRPLEPPRP	0.239
RRIRDRPPRLPRPRPRPLFGPRP	0.341
RRIRDRPPRLPRPRPRPLGKPRP	0.188
RRIRDRPPRLPRPRPRPLHCPRP	-0.145
RRIRDRPPRLPRPRPRPLMCPRP	0.498
RRIRDRPPRLPRPRPRPLMDPRP	0.172
RRIRDRPPRLPRPRPRPLMGPRP	0.0162
RRIRDRPPRLPRPRPRPLMNPRP	0.0268
RRIRDRPPRLPRPRPRPLMSPRP	0.101
RRIRDRPPRLPRPRPRPLNPPRP	-0.478
RRIRDRPPRLPRPRPRPLPFPRP	-0.398
RRIRDRPPRLPRPRPRPLPNPRP	-0.234
RRIRDRPPRLPRPRPRPLPTPRP	0.358
RRIRDRPPRLPRPRPRPLQLPRP	-0.0775

Sequence	shrunken log2 fold change
RRIRDRPPRLPRPRPRPLRQPRP	0.565
RRIRDRPPRLPRPRPRPLSCPRP	-0.212
RRIRDRPPRLPRPRPRPLSVPRP	-0.0465
RRIRDRPPRLPRPRPRPLTAPRP	0.48
RRIRDRPPRLPRPRPRPLTDPRP	0.0638
RRIRDRPPRLPRPRPRPLTIPRP	-0.257
RRIRDRPPRLPRPRPRPLTVPRP	-0.102
RRIRDRPPRLPRPRPRPLVMPRP	0.0567
RRIRDRPPRLPRPRPRPLWCPRP	-0.15
RRIRDRPPRLPRPRPRPLWNPRP	0.0619
RRIRDRPPRLPRPRPRPLYAPRP	-0.122
RRIRDRPPRLPRPRPRPLYRPRP	-0.163
RRIRDRPPRLPRPRPRPLYTPRP	-0.181
RRIRDRPPRLPRPRPRPMAGPRP	0.00396
RRIRDRPPRLPRPRPRPMATPRP	0.415
RRIRDRPPRLPRPRPRPMHLPRP	-0.339
RRIRDRPPRLPRPRPRPMIPPRP	-0.184
RRIRDRPPRLPRPRPRPMIVPRP	0.00989
RRIRDRPPRLPRPRPRPMPCPRP	0.000981
RRIRDRPPRLPRPRPRPMPTPRP	-0.0113
RRIRDRPPRLPRPRPRPMQVPRP	0.0758
RRIRDRPPRLPRPRPRPMSHPRP	-0.046
RRIRDRPPRLPRPRPRPMVKPRP	0.115
RRIRDRPPRLPRPRPRPMVYPRP	0.225
RRIRDRPPRLPRPRPRPMWLPRP	0.015

Sequence	shrunken log2 fold change
RRIRDRPPRLPRPRPRPMWRPRP	0.309
RRIRDRPPRLPRPRPRPNALPRP	-0.0157
RRIRDRPPRLPRPRPRPNCEPRP	0.133
RRIRDRPPRLPRPRPRPNCKPRP	0.135
RRIRDRPPRLPRPRPRPNDCPRP	-0.0197
RRIRDRPPRLPRPRPRPNFNPRP	-0.307
RRIRDRPPRLPRPRPRPNGEPRP	0.0768
RRIRDRPPRLPRPRPRPNGRPRP	0.00232
RRIRDRPPRLPRPRPRPNHIPRP	-1
RRIRDRPPRLPRPRPRPNHPPRP	-0.222
RRIRDRPPRLPRPRPRPNINPRP	-0.35
RRIRDRPPRLPRPRPRPNKDPRP	-0.951
RRIRDRPPRLPRPRPRPNKQPRP	-0.0169
RRIRDRPPRLPRPRPRPNLCPRP	0.0227
RRIRDRPPRLPRPRPRPNLKPRP	0.114
RRIRDRPPRLPRPRPRPNNDPRP	0.132
RRIRDRPPRLPRPRPRPNPRPRP	0.0975
RRIRDRPPRLPRPRPRPNQDPRP	0.000998
RRIRDRPPRLPRPRPRPNRHPRP	-0.327
RRIRDRPPRLPRPRPRPNSEPRP	0.261
RRIRDRPPRLPRPRPRPNSKPRP	-0.506
RRIRDRPPRLPRPRPRPNSVPRP	-0.0426
RRIRDRPPRLPRPRPRPNTEPRP	-0.0682
RRIRDRPPRLPRPRPRPNWFPRP	-0.0729
RRIRDRPPRLPRPRPRPNWRPRP	0.46
